Tested on: murine macrophage RAW264.7 cells
Experiment: Osteoclastic differentiation of RAW264.7 cells (TRAP stain)
Format: cell-based
Conditions: for osteoclast differentiation of RAW264.7 (TRAP): no graft carrier
Experimental: Grafts (5×5×1 mm, FlexBone 25% HA-25% TCP) were pre-absorbed with varying amounts of growth factors and cytokines to provide an exogenous supply for remodeling. […] The preferred loading dose of RANKL (10 ng/FlexBone graft) was determined by the osteoclastic differentiation of macrophage RAW264.7, induced by the RANKL released from the graft as indicated by positive TRAP stains (purple) of multinucleated cells on Day 6. […] Finally, the preferred loading dose of rhVEGF165 in stimulating the proliferation of human vascular endothelial cells in culture was determined to be 5 ng/graft.
Osteoclastic differentiation of murine macrophage RAW264.7 cells induced by the rmRANKL released from FlexBone. The bioactivity of the exogenous rmRANKL released from FlexBone is evaluated by its ability to induce osteoclastic differentiation of murine macrophage RAW264.7 cells six days after placing the FlexBone graft pre-loaded with rnRANKL in the RAW264.7 culture. RAW264.7 cells were seeded at 10,000/cm^2 in a 24-well plate in alpha-MEM (0.5 mL/well) supplemented with 10% FBS and 1% Pen-Strep, and allowed to attach overnight. One FlexBone or pHEMA graft freshly loaded with 10-ng rmRANKL was then added to each well (N=3 for each combination) on day one, and the culture was continued for 6 days with media change every two days without additional supplement of rmRANKL. In the positive control well, 10 ng rmRANKL was supplemented directly in the culture media without a graft carrier every two days. In the negative control well, 10 ng rmRANKL was supplemented directly in the culture media without a graft carrier on day one, and the medium was changed every two days without any additional supplement of rmRANKL. […] Grafts were removed from all wells before the cells were stained for tartrate-resistant acid phosphatase (TRAP) activities using the Sigma TRAP kit following the manufacturer's instructions.

B1: rmRANKL: recombinant receptor activator of nuclear factor κ ligand, purchased from R&D Systems (protein, UniProt O35235 139-316, looked up)
Tumor necrosis factor ligand …: FSGAPAMMEGSWLDVAQRGKPEAQPFAHLTINAASIPSGSHKVTLSSWYHDRGWAKISNMTLSNGKLRVNQDGFYYLYANICFRHHETSGSVPTDYLQLMVYVVKTSIKIPSSHNLMKGGSTKNWSGNSEFHFYSINVGGFFKLRAGEEISIQVSNPSLLDPDQDATYFGAFKVQDID
osteoclast differentiation of RAW264.7 (TRAP) (continued supplement of 10-ng every other day, day six): led to the formation of TRAP-positive multinucleated osteoclasts by day six | preferred loading dose (determined by osteoclastic differentiation of RAW264.7, TRAP stains on Day 6): 10 ng/FlexBone graft | supplement needed every other day to induce differentiation (no graft control): 5 ng | osteoclast differentiation of RAW264.7 (TRAP) (single supplement of 10-ng directly to the culture): not sufficient in inducing the osteoclast differentiation

Reference: patent publication US20100159011A1, “Compositions For Biomedical Applications” (University of Massachusetts Medical School, priority 2007, published 2010)
